These results are taken from PMC4352251, “The VieB auxiliary protein negatively regulates the VieSA signal transduction system in Vibrio cholerae” (BMC Microbiology, 2015).

Data set [1] addresses VieS-C (untagged cytoplasmic portion of the sensor kinase VieS) (UniProt O68317). In words: SEC-MALS; Superose12 10/300 GL in Gel Filtration Buffer (25 mM Tris pH 7.5, 100 mM KCl, 1 mM DTT, 5% glycerol); column at 4°C, light scattering at 25°C; self-association of each protein.
Data set [2] shares this target. In words: composition-gradient MALS (CG-MALS).
Data set [3] deals with the molecule itself. In words: SEC-MALS; Superose12 10/300 GL in Gel Filtration Buffer (25 mM Tris pH 7.5, 100 mM KCl, 1 mM DTT, 5% glycerol); column at 4°C, light scattering at 25°C; self-association of each protein.

For the molecule “VieS-C (untagged cytoplasmic portion of the sensor kinase VieS) (from UniProt O68317 1-1146) (domain or fragment)”, the stoichiometry N in data set [1] stood at 2.

B1: VieA-His6 (response regulator VieA) (natural protein)
chain: MKIMIVEDDRIQATSLKLKLRQLGLDDVILAENGFAALELCNKVGIDLMFCDIRMPQMDGISLLSQLSLQAPKLGVVILSAVEDTILELTHNMCSLAGFAYVDRLPKPYEVEDLQRVVEGFQKQTEPETSHKPAITLTCDEIEQAFLHDHIFNYYQPQFDFRSGAMVGVEALVRYEHPTHGMLSPAVFLPLIEQCGLHEKLFLTVLEKSVSALASIGADLQLSVNISQRNLQHSICDPILAICERYGFPASKLTLEMTEHEVYNGTPTSLANLARLRMYGVGLSIDDFGTGYASLGQLAQLPFTELKIDRSFVHDLATNYKHQQLTNMCLLLAQSLGLHCVVEGVENEETWQYLRQLGVDTCQGYYAAKPMPIAQLSELYTKNRRQCLGCQSMDDGWQILLVDNHMLSATALQKVLNKEENVSKVFVAQDIEQTLHKLRDLPINLLVVESRFLSTISPAAFHELLEPYYRGALLVLHDGLTAEAQEDEPKAIVVKANTLMETSSRILLQAQQSNVRPQAQQEELAQLSERELTVAKMLVEGLTNKEIALQLDINQKTVSTYKTRIMTKLGIKSAMELVRFVTLK
notes: not shown: His6, C-terminal, kept
In data set [2], B1 displayed a Kd of 1380 nM and a stoichiometry N (VieA-His6 dimer per VieS-C dimer) of 1. Besides, the “stoichiometry N” value in data set [3] was 2.

B2: VieB (wild type, His6 tag removed) (natural protein)
chain: MAVPTFAELKVLIIDDAPIVIASLRSMLLKLGFTDPNIVWSKSPRAAVFMAGRQRFDIFICDYNFGKGLNGKQVFEELKHYKLIKQDAVFVLVTGENSAYVVHSILELKPDEYILKPFNIMTLQERLTNAISRKHALKALYQAERDGDAELGLSLCDELEPFYNDYYFVIQKFRGEFLTQLRRFDHAREVYLETLEHKDFDWAKIGLANALKQTGRQVEATQVIQELLASAPNNVRARVEAASISLCNNSIPEAIHHLQVANQIVPGHSEREWVLANLCLSVGDGASALERYRLYVEINKETYRNNHQMHLNFIRTLLYAARQAESEQRDLWVQEAKSILKGLYDKGQHEDLLAQLELVAAHLAMEEGEFGVSVEILNKIYRAKPFELFEDRYHFTWLLNVMGFDSEFAKCISWCNGTLLNQETDIVLESKVALAKALKEANQEKLQWLEQRYHALCNKQQTIDSLLAIYIEILEKCPTLRTVCMKVVTIFSRYWPTALTESEAERLLKSCHRTIRQLMNEEELQQAQYAELYRKALTFRSRYRLQRTESVEA
Turning to B2, in data set [2], the Kd came to 467 nM and the stoichiometry N (VieB monomer per VieS-C dimer) turned out to be 1.
